# US20250382359A1 (BYOMASS, published 2025)
# Where a chain is given by its changes, count along the chain named.
# T1: Human GDF15 Fc (human, UniProt Q99988 195-308, limits assumed, biotinylated (EZ-Link Sulfo-NHS-Biotinylation Kit) in the SPR assay)
# T1 construct: also called human GDF15-Fc fusion; biotinylated Human GDF15 Fc; not shown: Fc part
# T1 sequence: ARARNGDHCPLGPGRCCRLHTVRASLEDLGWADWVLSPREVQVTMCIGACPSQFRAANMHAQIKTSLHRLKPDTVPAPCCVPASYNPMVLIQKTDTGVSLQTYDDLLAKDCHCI
# T2: GDF15 (ligand used in the GFRAL/RET cell assays) (UniProt Q99988 197-308, limits assumed)
# T2 sequence (looked up): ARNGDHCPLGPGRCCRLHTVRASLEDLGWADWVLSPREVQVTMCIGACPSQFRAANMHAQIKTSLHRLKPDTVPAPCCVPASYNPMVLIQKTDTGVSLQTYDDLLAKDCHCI
# T3: Cyno GDF15 Fc (cyno, UniProt G7PWZ3 193-308, limits assumed)
# T3 construct: also called cyno GDF15-Fc fusion; not shown: Fc part
# T3 sequence: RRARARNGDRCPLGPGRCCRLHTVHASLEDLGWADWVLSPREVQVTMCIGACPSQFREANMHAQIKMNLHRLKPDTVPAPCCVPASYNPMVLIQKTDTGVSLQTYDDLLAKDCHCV
# T4: Mouse GDF15 Fc (mouse, UniProt Q9Z0J7 189-303, limits assumed)
# T4 construct: also called mouse GDF15-Fc fusion; not shown: Fc part
# T4 sequence (looked up): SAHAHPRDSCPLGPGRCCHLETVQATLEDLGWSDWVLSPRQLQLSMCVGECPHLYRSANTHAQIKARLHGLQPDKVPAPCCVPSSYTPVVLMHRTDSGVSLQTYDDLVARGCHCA
# T5: Human Activin A Fc (human, UniProt P08476 311-426)
# T5 construct: not shown: Fc part
# T5 sequence (looked up): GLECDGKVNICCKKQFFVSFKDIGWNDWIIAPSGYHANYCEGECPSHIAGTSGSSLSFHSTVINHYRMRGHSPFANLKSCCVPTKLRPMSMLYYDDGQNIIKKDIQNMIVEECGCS
# T6: GDNF (UniProt P39905 78-211)
# T6 sequence (looked up): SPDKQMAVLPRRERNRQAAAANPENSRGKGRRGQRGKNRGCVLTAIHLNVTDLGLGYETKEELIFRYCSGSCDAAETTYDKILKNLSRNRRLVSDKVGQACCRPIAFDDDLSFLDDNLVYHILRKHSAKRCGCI
# T7: Human BMP10 (human, UniProt O95393 317-424)
# T7 sequence (looked up): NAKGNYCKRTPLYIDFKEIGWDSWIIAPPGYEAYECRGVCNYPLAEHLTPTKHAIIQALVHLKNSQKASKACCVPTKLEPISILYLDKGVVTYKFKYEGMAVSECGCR
# T8: Human Activin B (human, UniProt P09529 293-407)
# T8 sequence (looked up): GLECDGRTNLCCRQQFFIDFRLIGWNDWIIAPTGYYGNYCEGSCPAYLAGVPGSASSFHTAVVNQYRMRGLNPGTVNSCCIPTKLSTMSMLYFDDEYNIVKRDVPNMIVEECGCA
# T9: GDF10 (UniProt P55107 369-478)
# T9 sequence (looked up): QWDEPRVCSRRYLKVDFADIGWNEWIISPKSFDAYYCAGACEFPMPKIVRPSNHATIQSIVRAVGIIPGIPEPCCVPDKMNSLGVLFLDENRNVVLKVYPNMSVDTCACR
# T10: Human BMP9 (human, UniProt Q9UK05 320-429)
# T10 sequence (looked up): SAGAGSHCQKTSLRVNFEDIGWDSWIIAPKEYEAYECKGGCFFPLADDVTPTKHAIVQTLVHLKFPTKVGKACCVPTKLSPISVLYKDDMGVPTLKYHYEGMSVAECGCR
# B1: GDF15 antibody agent Clone F, IgG (antibody, V domains shown)
# VH: QVQLVQSGAEVKKPGSSVKVSCKASGGTFGGYAISWVRQAPGQGLEWMGGIIPPYATANYAQKFQGRVTITADESTSTAYMELSSLRSEDTAVYYCARGVGTTHLDVWGQGTMVTVSS
# VL: not shown
# B2: GDF15 antibody agent Clone I, IgG (antibody, V domains shown)
# VH: QVQLVQSGAEVKKPGASVKVSCKASGYTFTDEGINWVRQAPGQGLEWMGWITAYSGDTVYAQKLQGRVTMTTDTSTSTAYMELRSLRSDDTAVYYCARGPGQYADVDVWGQGTMVTVSS
# VL: DIQMTQSPSSVSASVGDRVTITCRASQGISSWLAWYQQKPGKAPKLLIYAASSLQSGVPSRFSGSGSGTDFTLTISSLQPEDFATYYCQQANSFPITFGGGTKVEIKR
# B3: GDF15 antibody agent Clone J, IgG (antibody, V domains shown)
# VH: B2 VH with D31S, E32Y, T52D, D57S, V59N
# VL: B2 VL
# B4: GDF15 antibody agent Clone P, IgG (antibody, V domains shown)
# VH: QVQLVQSGAEVKKPGATVKVSCKASGYTFDSYGIHWVRQAPGQGLEWMGWITAYSGDTVYAQKLQGRVTMTTDTSTSTAYMELRSLRSDDTAVYYCARESGQTSSALGPWGQGTLVTVSS
# VL: B2 VL with S31R, A91G, N92A, I96L
# B5: GDF15 antibody agent Clone F, Fab (Fab, V domains shown)
# VH: B1 VH
# VL: not shown
# notes: Fab; CH1 and CL of the Fab not specified; also called Fab of Clone F
# B6: GDF15 antibody agent Clone G, Fab (Fab, V domains shown)
# VH: B1 VH with G30Q, V37A, T102E, T103L
# VL: not shown
# notes: Fab; CH1 and CL of the Fab not specified; also called Fab of Clone G
# B7: GDF15 antibody agent Clone N, Fab (Fab, V domains shown)
# VH: QVQLVQSGAEVKKPGASVKVSCKASGYTFTDYGIFWVRQAPGQGLEWMGWITAYSGDTHYAQKLQGRVTMTTDTSTSTAYMELRSLRSDDTAVYYCVRDTQYGGSPYWGQGTLVTVSS
# VL: EIVMTQSPATLSVSPGERATLSCRASQSVSSNLAWYQQKPGQAPRLLIYGASTRATGIPARFSGSGSGTEFTLTISSLQSEDFAVYYCQQYNNWPITFGGGTKVEIK
# notes: Fab; CH1 and CL of the Fab not specified; also called Fab of Clone N
# B8: GDF15 antibody agent Clone B, Fab (Fab, V domains shown)
# VH: QVQLQESGPGLVKPSQTLSLTCTVSGGSISSGGIYWTWIRQHPGKGLEWIGAIAYSGSTYYNPSLKSRVTISVDTSKNQFSLKLSSVTAADTAVYYCARGIEYQHFDYWGQGTLVTVSS
# VL: not shown
# notes: Fab; CH1 and CL of the Fab not specified; also called Fab of Clone B
# B9: GDF15 antibody agent Clone C, Fab (Fab, V domains shown)
# VH: B8 VH with I34Y, T37S, A54V, S58H, I101V, D107S, Y108L
# VL: not shown
# notes: Fab; CH1 and CL of the Fab not specified; also called Fab of Clone C
# B10: GDF15 antibody agent Clone D, Fab (Fab, V domains shown)
# VH: B8 VH with S30N, I34Y, A54Y, Y60V, I101V, D107N, Y108E
# VL: not shown
# notes: Fab; CH1 and CL of the Fab not specified; also called Fab of Clone D
# B11: GDF15 antibody agent Clone A, Fab (Fab, V domains shown)
# VH: B8 VH with S30T, I34S, T37S, A54V, I101V
# VL: not shown
# notes: Fab; CH1 and CL of the Fab not specified; also called Fab of Clone A
# B12: GDF15 antibody agent Clone R, Fab (Fab, V domains shown)
# VH: B8 VH with K66E
# VL: not shown
# notes: Fab; CH1 and CL of the Fab not specified; also called Fab of Clone R
# B13: GDF15 antibody agent Clone Q, Fab (Fab, V domains shown)
# VH: B8 VH
# VL: not shown
# notes: Fab; CH1 and CL of the Fab not specified; also called Fab of Clone Q
# Molecular target: T1, Human GDF15 Fc
# Experiment: BLI Octet; IgG on sensor, 100 nM antigen (avid)
# Method: Briefly, ForteBio affinity measurements were performed by loading IgGs on-line onto AHC sensors. Sensors were equilibrated off-line in assay buffer for 30 min and then monitored on-line for 60 seconds for baseline establishment. Sensors with loaded IgGs were exposed to 100 nM antigen for 3 minutes, and afterwards were transferred to assay buffer for 3 min for off-rate measurement. All kinetics were analyzed using the 1:1 binding model.
row,Kd [pM],Binder
1,244,B1
2,262,B2
3,276,B3
4,274,B4

# Molecular target: T2, GDF15 (ligand used in the GFRAL/RET …)
# Experiment: cell-based or functional assay
GDF15-GFRAL RET pERK IC50 (pM),GDF15-GFRAL-RET Luciferase IC50 (pM),GDF15 GFRAL RET pERK Fab IC50 pM [pM],Binder
34.9,91.3,,B1
,,11.2,B5
,,33.2,B6
,,322,B7
34.5,79.3,,B2
30.3,110,,B3
35.6,,,B4
,,30.9,B8
,,36.8,B9
,,27,B10
,,26.5,B11

# Molecular target: T3, Cyno GDF15 Fc
# Experiment: BLI Octet; antigen on sensor, 100 nM Fab (monovalent)
row,Kd [pM],Binder
1,553,B5
2,474,B6
3,349,B8
4,360,B9
5,366,B12
6,562,B10
7,536,B11
8,327,B13

# Molecular target: T4, Mouse GDF15 Fc
# Experiment: as above
row,Kd [pM],Binder
1,26100,B5
2,2560,B7
3,156000,B9
4,234000,B12
5,157000,B10
6,204000,B13

# Molecular target: T5, Human Activin A Fc
# Experiment: BLI Octet; IgG on sensor
row,binding result,Binder
1,no binding (tested: 100 nM),B1
2,no binding (tested: 100 nM),B2
3,no binding (tested: 100 nM),B3
4,no binding (tested: 100 nM),B4

# Molecular target: GDF8 (UniProt O14793 267-375)
# Experiment: BLI Octet; IgG on sensor
row,binding result,Binder
1,no binding (tested: 100 nM),B1
2,no binding (tested: 100 nM),B2
3,no binding (tested: 100 nM),B3
4,no binding (tested: 100 nM),B4

# Molecular target: T6, GDNF
# Experiment: BLI Octet; IgG on sensor
row,binding result,Binder
1,no binding (tested: 100 nM),B1

# Molecular target: T11, GDF11 (UniProt O95390 299-407)
# T11 construct: Also used as ligand in the Activin 2B receptor/SMAD reporter assay
# Experiment: BLI Octet; IgG on sensor
# T11 sequence (O95390 299-407 limits assumed): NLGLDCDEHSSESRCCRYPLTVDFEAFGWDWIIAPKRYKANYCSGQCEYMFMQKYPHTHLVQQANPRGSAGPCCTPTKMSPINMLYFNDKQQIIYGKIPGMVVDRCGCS
row,binding result,Binder
1,no binding (tested: 100 nM),B1
2,no binding (tested: 100 nM),B2
3,no binding (tested: 100 nM),B3
4,no binding (tested: 100 nM),B4

# Molecular target: T7, Human BMP10
# Experiment: BLI Octet; IgG on sensor
row,binding result,Binder
1,no binding (tested: 100 nM),B1
2,no binding (tested: 100 nM),B2
3,no binding (tested: 100 nM),B3
4,no binding (tested: 100 nM),B4

# Molecular target: T8, Human Activin B
# Experiment: BLI Octet; IgG on sensor
row,binding result,Binder
1,no binding (tested: 100 nM),B1
2,no binding (tested: 100 nM),B2
3,no binding (tested: 100 nM),B3
4,no binding (tested: 100 nM),B4

# Molecular target: T9, GDF10
# Experiment: BLI Octet; IgG on sensor
row,binding result,Binder
1,no binding (tested: 100 nM),B2
2,no binding (tested: 100 nM),B3
3,no binding (tested: 100 nM),B4

# Molecular target: T10, Human BMP9
# Experiment: BLI Octet; IgG on sensor
row,binding result,Binder
1,no binding (tested: 100 nM),B2
2,no binding (tested: 100 nM),B3
3,no binding (tested: 100 nM),B4

# Molecular target: T1, Human GDF15 Fc
# Experiment: SPR Biacore 8K; biotinylated antigen captured, Fab analyte
# Method: Kinetic analysis was conducted at 25° C. in HBS-EP+running buffer (10 mM HEPES pH 7.4, 150 mM NaCl, 3 mM EDTA, 0.05% Surfactant P20) using a Biacore 8K optical biosensor (Cytiva, Marlborough, MA). The sample compartment was maintained at 10° C. for the duration of the experiment. The Biacore 8K can analyze up to 8 separate interactions in a single cycle.
# Each experiment cycle began with an injection (300 s at 2 μL/min) overflow cells 1 and 2 of a 1:100 solution of biotin CAPture reagent (Cytiva) in running buffer. This was followed by an injection (45 s at 10.0 μL/min) of biotinylated human GDF15 (5 nM) overflow cell 2. […] The dissociation of the antibodies were monitored for 3420 s. Finally, an injection (120 s at 10 μL/min) of regeneration solution (6 M Guanidine-HCl in 0.25 M NaOH) overflow cells 1 and 2 prepared the sensor surface for another cycle. Several blank buffer samples were injected (300 s at 30 μL/min) overflow cells 1 and 2 throughout the duration of the experiment and used for reference surface subtraction—each were monitored for the same amount of dissociation time (3420 s) and regenerated under the same conditions as those for the Fab sample injections.
Kd [pM],koff [s⁻¹],kon [M⁻¹ s⁻¹],Binder
545,0.00318,5.84e+06,B7
